Measured values published in US9127040B2, “Regulation of sodium channels by PLUNC proteins” (The University of North Carolina at Chapel Hill, priority 2011, dated 2015).

Biological target: T1, α and γ ENaC (Rattus norvegicus, UniProt P37089+P37090+P37091)
T1 construct: expressed in transfected cells; host or cells: Xenopus oocytes (cRNA injection; with or without V5-SPLUNC1 and CAP2)
T1 sequence (P37089 1-698): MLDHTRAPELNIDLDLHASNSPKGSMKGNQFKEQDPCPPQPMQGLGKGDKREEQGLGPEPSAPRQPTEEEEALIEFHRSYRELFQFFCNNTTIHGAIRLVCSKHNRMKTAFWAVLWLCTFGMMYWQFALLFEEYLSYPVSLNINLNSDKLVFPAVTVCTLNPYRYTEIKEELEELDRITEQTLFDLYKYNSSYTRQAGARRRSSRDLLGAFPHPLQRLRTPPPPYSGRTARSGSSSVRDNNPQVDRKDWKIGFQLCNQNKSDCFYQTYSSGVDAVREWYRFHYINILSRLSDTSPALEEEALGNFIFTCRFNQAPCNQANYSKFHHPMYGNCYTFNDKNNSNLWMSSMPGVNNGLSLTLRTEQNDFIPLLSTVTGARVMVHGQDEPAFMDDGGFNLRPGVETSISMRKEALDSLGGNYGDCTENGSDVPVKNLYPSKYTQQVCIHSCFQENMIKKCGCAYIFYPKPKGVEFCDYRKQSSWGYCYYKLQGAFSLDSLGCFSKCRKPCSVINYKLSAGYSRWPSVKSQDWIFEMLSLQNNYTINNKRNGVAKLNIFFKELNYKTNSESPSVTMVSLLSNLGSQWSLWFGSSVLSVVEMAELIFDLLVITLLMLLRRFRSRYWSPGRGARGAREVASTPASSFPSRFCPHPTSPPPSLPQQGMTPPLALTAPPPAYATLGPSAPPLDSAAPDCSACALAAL
T1 sequence (P37090 1-638): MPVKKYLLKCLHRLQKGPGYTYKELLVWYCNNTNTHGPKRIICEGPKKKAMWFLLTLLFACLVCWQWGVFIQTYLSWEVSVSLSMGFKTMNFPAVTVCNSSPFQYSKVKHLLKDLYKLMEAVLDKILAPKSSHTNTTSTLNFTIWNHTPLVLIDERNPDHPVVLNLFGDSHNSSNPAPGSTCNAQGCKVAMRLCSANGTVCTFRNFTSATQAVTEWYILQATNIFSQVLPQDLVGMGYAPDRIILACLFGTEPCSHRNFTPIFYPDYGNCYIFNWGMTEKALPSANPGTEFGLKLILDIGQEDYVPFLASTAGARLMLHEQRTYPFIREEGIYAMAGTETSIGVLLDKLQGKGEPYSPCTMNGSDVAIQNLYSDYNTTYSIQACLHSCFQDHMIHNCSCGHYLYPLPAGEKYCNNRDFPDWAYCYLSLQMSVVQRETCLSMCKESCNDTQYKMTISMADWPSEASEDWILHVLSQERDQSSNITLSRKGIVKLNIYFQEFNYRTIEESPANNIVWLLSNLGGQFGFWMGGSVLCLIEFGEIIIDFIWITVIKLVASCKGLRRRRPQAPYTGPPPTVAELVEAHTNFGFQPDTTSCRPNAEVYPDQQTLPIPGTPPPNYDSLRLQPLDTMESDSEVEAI
T1 sequence (P37091 1-650): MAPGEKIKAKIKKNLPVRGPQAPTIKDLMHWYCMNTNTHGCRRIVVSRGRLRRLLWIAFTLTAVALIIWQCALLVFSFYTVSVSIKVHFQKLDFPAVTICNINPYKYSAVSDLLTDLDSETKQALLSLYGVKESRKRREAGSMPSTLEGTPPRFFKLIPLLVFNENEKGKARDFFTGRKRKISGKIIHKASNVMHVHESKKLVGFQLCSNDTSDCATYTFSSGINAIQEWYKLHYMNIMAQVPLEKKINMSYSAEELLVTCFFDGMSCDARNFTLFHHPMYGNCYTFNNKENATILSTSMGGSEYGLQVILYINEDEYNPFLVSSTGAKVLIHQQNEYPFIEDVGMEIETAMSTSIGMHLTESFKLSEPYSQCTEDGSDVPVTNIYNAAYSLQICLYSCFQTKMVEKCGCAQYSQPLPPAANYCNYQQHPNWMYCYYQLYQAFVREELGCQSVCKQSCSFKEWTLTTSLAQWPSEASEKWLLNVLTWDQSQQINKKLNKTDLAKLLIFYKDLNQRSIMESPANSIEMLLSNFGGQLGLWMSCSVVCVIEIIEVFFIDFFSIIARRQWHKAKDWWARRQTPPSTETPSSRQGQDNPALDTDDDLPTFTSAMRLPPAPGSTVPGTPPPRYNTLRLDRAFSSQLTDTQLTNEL
Assay: Western blot of ENaC cleavage by CAP2 in Xenopus oocytes
Assay type: cell-based
Details: αβγENaC, CAP2 and SPLUNC1 co-expressed in oocytes
Protocol: Xenopus oocytes were injected with either HA-N-Terminus or V5-C-Terminus (HA-NT/V5-CT) tagged subunits in combination with wild type (WT) untagged rat αβγENaC subunits (0.3 ng cRNA each) with or without V5-tagged SPLUNC1 and CAP2 (1 ng cRNA each). After 24 h, 40 eggs per experimental condition were lysed with buffer containing (in mM): 20 Tris, 50 NaCl, 50 NaF, 10 β-glycerophosphate, 5 Na4P2O7 pyrophosphate, 1 EDTA, pH 7.5 and protease inhibitors (complete, Roche), aprotinin (Sigma). Cell lysates were prepared by passing the eggs through a 27G1/2 needle twice and by centrifugation at 3,600 rpm for 10 minutes at 4° C. […]
Proteolytic cleavage of α and γ subunits is required for ENaC activation (Mueller et al., J. Biol. Chem. 282:33475 (2007); Adebamiro et al., J. Gen. Physiol. 130:611 (2007)) and since CAP2 is highly expressed in human bronchial epithelial cultures (Tarran et al., J. Gen. Physiol. 127:591 (2006)), we tested whether SPLUNC1 could alter α and γ ENaC cleavage by CAP2. Due to the relative scarcity of purified rSPLUNC1, we elected to co-express SPLUNC1 and ENaC rather than use rSPLUNC1 for subsequent oocyte studies since SPLUNC1 is secreted at sufficient quantities from oocytes to inhibit ENaC (FIG. 5). When αβγENaC and CAP2 were co-expressed in oocytes, both full-length ENaC subunits and cleaved α and γ fragments were detected with a V5 antibody (FIG. 7A, 7B). […]

B1: SPLUNC1: human SPLUNC1 (SEQ ID NO:1), 256 amino acid secreted PLUNC family protein; rSPLUNC1 is the purified V5/6His-tagged recombinant form (protein, listed as Homo sapiens)
chain: MFQTGGLIVFYGLLAQTMAQFGGLPVPLDQTLPLNVNPALPLSPTGLAGSLTNALSNGLLSGGLLGILENLPLLDILKPGGGTSGGLLGGLLGKVTSVIPGLNNIIDIKVTDPQLLELGLVQSPDGHRLYVTIPLGIKLQVNTPLVGASLLRLAVKLDITAEILAVRDKQERIHLVLGDCTHSPGSLQISLLDGLGPLPIQGLLDSLTGILNKVLPELVQGNVCPLVNEVLRGLDITLVHDIVNMLIHGLQFVIKV
modifications: V5/6His tag in recombinant form
notes: rSPLUNC1 is the purified V5/6His-tagged recombinant form
α and γ ENaC cleavage by CAP2: only full-length α and γ ENaC subunits could be observed
